The values below come from PMC11354668.

In series [1] the test system is ChromPure mouse IgG whole molecule (mouse). Briefly: BLI. The following applies: BLI (Octet K2), SAX2.0 sensors loaded with 0.5 uM 5'-biotin DNA, IgG 0.0125-0.2 mg/mL, PBST-B, 30 C, pH not ….
Another series deals with staphylococcal protein A (UniProt P38507). The series can be described thus: BLI; Octet K2; SPA biosensor (sensor type: ProA) with mouse IgG; SPA-IgG run as positive control; the IgG concentrations and times of this kinetic run are not described.

Regarding CAGTGGCTGA [2KN7], the dissociation constant Kd in series [1] (5'-biotin) was determined as 1200 nM. That is a single-digit micromolar value.

Turning to CCCCCCCCCCCCCCC [poly-C15], the Kd in series [1] (5'-biotin) amounted to 1360 nM.

In the case of CGCCTAGGTTGGGTAGGGTGGTGGCG [6GN7], the dissociation constant Kd in series [1] (5'-biotin (unmodified in SPA competition)) came out at 241 nM.

In the series with staphylococcal protein A, “ChromPure mouse IgG whole molecule (antibody)” gave an equilibrium dissociation constant (Kd) of 14.9 nM, a koff of 0.000716 s⁻¹ and an association rate constant (kon) of 48000 M⁻¹ s⁻¹.

GCGGCGG [5FGP] showed a dissociation constant (Kd) in series [1] (5'-biotin) of 1510 nM. In other words, the single-digit micromolar range.

GGGGGGGGGG [poly-G10] showed a dissociation constant (Kd) in series [1] (5'-biotin) of 295 nM.

For the substance GGGGGGGGGGGGGGG [poly-G15], the equilibrium dissociation constant (Kd) in series [1] (5'-biotin) came out at 273 nM. The Kd values of the last two substances are within 1.5-fold of each other.

GGGGTGGGTGGTGGGT [7XHD] gave an equilibrium dissociation constant (Kd) in series [1] (5'-biotin) of 521 nM. Against the preceding substance, the Kd is about 1.9-fold higher.

As to GGGGTTTTGGGG [1OTC], the dissociation constant (Kd) in series [1] (5'-biotin) was 414 nM. The Kd values of the last two substances are within 1.5-fold of each other.

In series [1] (5'-biotin), GGGGTTTTGGGGT [1PH1-D] gave a Kd of 881 nM. Compared with the last substance, the Kd is about 2.1-fold higher.

On to GGGTCGGTGCCTTA [6CRM], for which, in series [1] (5'-biotin), the equilibrium dissociation constant (Kd) was 1110 nM. The Kd values of the last two substances are within 1.5-fold of each other.

On to GGTTGGTGTGGTTGG [1RDE], for which the Kd in series [1] (5'-biotin) was found to be 1090 nM.

TGGGGTGTGG [2A0I]: the dissociation constant (Kd) in series [1] (5'-biotin) was found to be 872 nM. This Kd and that of the substance before are within 1.5-fold of each other.

For the substance TGTACAATGGG [3UGO], in series [1] (5'-biotin), the Kd is 793 nM.

For TTTTTTTT [7JSI], in series [1] (5'-biotin), the dissociation constant (Kd) turned out to be 1830 nM.

In series [1] (5'-biotin), TTTTTTTTTT [4OU6] registered a Kd of 947 nM.

With TTTTTTTTTT [poly-T10], the dissociation constant Kd in series [1] (5'-biotin) amounted to 1490 nM.

In series [1] (5'-biotin), TTTTTTTTTTTT [4JS5] returned a Kd of 1730 nM.

Substance TTTTTTTTTTTTTTT [2CCZ] came in with a Kd in series [1] (5'-biotin) of 909 nM.

On to TTTTTTTTTTTTTTT [poly-T15], for which, in series [1] (5'-biotin), the dissociation constant Kd was determined as 909 nM.

In series [1] (5'-biotin), TTTTTTTTTTTTTTTG [2C62] came in with a Kd of 3240 nM.

Consider TTTTTTTTTTTTTTTT [6SKO], for which the equilibrium dissociation constant (Kd) in series [1] (5'-biotin) stood at 1070 nM.

As to TTTTTTTTTTTTTTTTT [7JSG], the dissociation constant Kd in series [1] (5'-biotin) amounted to 1120 nM.

With “TTTTTTTTTTTTTTTTTTCCCTTTTTTTTTTTTTTTTTTT [5XRZ]”, the equilibrium dissociation constant (Kd) in series [1] (5'-biotin) was found to be 843 nM.

In series [1] (5'-biotin), TTTTTTTTTTTTTTTTTTTT [poly-T20] gave an equilibrium dissociation constant (Kd) of 830 nM. This Kd and that of the substance before are within 1.5-fold of each other.

Regarding TTTTTTTTTTTTTTTTTTTTTTTTT [4GNX], the dissociation constant Kd in series [1] (5'-biotin) came out at 2100 nM.

With TTTTTTTTTTTTTTTTTTTTTTTTT [poly-T25], the dissociation constant (Kd) in series [1] (5'-biotin) came to 1010 nM.

On to “TTTTTTTTTTTTTTTTTTTTTTTTTTTTTT [poly-T30]”, for which, in series [1] (5'-biotin), the dissociation constant Kd stood at 1430 nM.
